The source of these data is article PMC5183740.

This test concerns the target SA-M2e (streptavidin core fused to three consecutive copies of M2e of A/PARIS/2590/2009 (H1N1)) (Streptomyces avidinii | influenza A virus A/PARIS/2590/2009 (H1N1)). Description: SDS-PAGE of unheated samples.

As for “SA-M2e (streptavidin core fused to three consecutive copies of M2e of A/PARIS/2590/2009 (H1N1))”, the stoichiometry N (commonly a count of units in the complex or per binding partner) came to 4.
